Laboratory results from the supplement of paper PMC9112550, “Optimization of the antimicrobial peptide Bac7 by deep mutational scanning” (BMC Biology, 2022).

System: Escherichia coli TOP10
Assay: shrunken log2 fold change of peptide-encoding DNA abundance (4.5 h post-induction vs induction); higher = less antimicrobial activity (less host growth inhibition)
Details: time post-induction: 4.5 h; library: site-saturation at positions 5, 18, 19, 20
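Also: peptides expressed intracellularly from a pBAD plasmid library in pooled LB shake-flask culture, induced with 0.3% L-arabinose, DNA abundance read by NGS, three biological replicates, DESeq2 with apeglm shrinkage.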

Q: With RRIRLRPPRLPRPRPRPPGTPRP as the sequence, how does the “shrunken log2 fold change” value read?
A: 0.448

Q: RRIRYRPPRLPRPRPRPDGHPRP was tested. Which “shrunken log2 fold change” value did it give?
A: -0.024

Q: Which “shrunken log2 fold change” value does the source give for RRIRIRPPRLPRPRPRPQRQPRP here?
A: 0.098

Q: How did the “shrunken log2 fold change” value turn out when RRIRGRPPRLPRPRPRPEIEPRP was run?
A: 1.37

Q: Which “shrunken log2 fold change” value does the source give for RRIRCRPPRLPRPRPRPVLNPRP here?
A: -0.396

Q: For RRIRGRPPRLPRPRPRPTGAPRP, which “shrunken log2 fold change” value is on record?
A: 1.31

Q: For RRIRWRPPRLPRPRPRPLNFPRP, which “shrunken log2 fold change” value is on record?
A: -0.323

Q: For RRIRHRPPRLPRPRPRPSEPPRP, which “shrunken log2 fold change” value is on record?
A: -0.206

Q: For RRIRKRPPRLPRPRPRPNEYPRP, which “shrunken log2 fold change” value is on record?
A: 0.0869

Q: With RRIRERPPRLPRPRPRPVLVPRP as the sequence, how does the “shrunken log2 fold change” value read?
A: -0.0151

Q: For RRIRWRPPRLPRPRPRPYYSPRP, which “shrunken log2 fold change” value is on record?
A: -0.181

Q: For RRIRMRPPRLPRPRPRPGGYPRP, which “shrunken log2 fold change” value is on record?
A: 0.0413

Q: How did the “shrunken log2 fold change” value turn out when RRIRFRPPRLPRPRPRPSFAPRP was run?
A: -0.156

Q: Which “shrunken log2 fold change” value does the source give for RRIRQRPPRLPRPRPRPRCFPRP here?
A: -0.0694

Q: RRIRDRPPRLPRPRPRPEIQPRP was tested. Which “shrunken log2 fold change” value did it give?
A: 0.7

Q: With RRIRDRPPRLPRPRPRPATKPRP as the sequence, how does the “shrunken log2 fold change” value read?
A: 0.318

Q: Which “shrunken log2 fold change” value does the source give for RRIRKRPPRLPRPRPRPYNCPRP here?
A: 0.00529

Q: RRIRKRPPRLPRPRPRPCYNPRP was tested. Which “shrunken log2 fold change” value did it give?
A: -0.428

Q: For RRIRGRPPRLPRPRPRPACTPRP, which “shrunken log2 fold change” value is on record?
A: 1.17

Q: Which “shrunken log2 fold change” value does the source give for RRIRHRPPRLPRPRPRPRWYPRP here?
A: -0.137

Q: With RRIRKRPPRLPRPRPRPRQFPRP as the sequence, how does the “shrunken log2 fold change” value read?
A: 0.192

Q: How did the “shrunken log2 fold change” value turn out when RRIRRRPPRLPRPRPRPKLAPRP was run?
A: 0.333

Q: With RRIRDRPPRLPRPRPRPMLAPRP as the sequence, how does the “shrunken log2 fold change” value read?
A: 0.607

Q: How did the “shrunken log2 fold change” value turn out when RRIRLRPPRLPRPRPRPNLLPRP was run?
A: 0.153

Q: For RRIRWRPPRLPRPRPRPMAEPRP, which “shrunken log2 fold change” value is on record?
A: 0.203

Q: RRIRKRPPRLPRPRPRPRVMPRP was tested. Which “shrunken log2 fold change” value did it give?
A: 0.436

Q: With RRIRHRPPRLPRPRPRPISQPRP as the sequence, how does the “shrunken log2 fold change” value read?
A: -0.0145

Q: RRIRNRPPRLPRPRPRPPEHPRP was tested. Which “shrunken log2 fold change” value did it give?
A: 0.266

Q: With RRIRGRPPRLPRPRPRPAQKPRP as the sequence, how does the “shrunken log2 fold change” value read?
A: 0.721

Q: How did the “shrunken log2 fold change” value turn out when RRIRQRPPRLPRPRPRPYQDPRP was run?
A: 0.00682

Q: RRIRYRPPRLPRPRPRPSWCPRP was tested. Which “shrunken log2 fold change” value did it give?
A: -0.0502

Q: With RRIRGRPPRLPRPRPRPTHWPRP as the sequence, how does the “shrunken log2 fold change” value read?
A: 0.629

Q: For RRIRERPPRLPRPRPRPPLYPRP, which “shrunken log2 fold change” value is on record?
A: 0.127

Q: How did the “shrunken log2 fold change” value turn out when RRIRMRPPRLPRPRPRPGPEPRP was run?
A: 0.797

Q: How did the “shrunken log2 fold change” value turn out when RRIRWRPPRLPRPRPRPPGVPRP was run?
A: 0.525

Q: RRIRLRPPRLPRPRPRPLEKPRP was tested. Which “shrunken log2 fold change” value did it give?
A: -0.0425

Q: For RRIRDRPPRLPRPRPRPWQIPRP, which “shrunken log2 fold change” value is on record?
A: 0.0319

Q: RRIRTRPPRLPRPRPRPDGLPRP was tested. Which “shrunken log2 fold change” value did it give?
A: 0.0665

Q: With RRIRFRPPRLPRPRPRPWLVPRP as the sequence, how does the “shrunken log2 fold change” value read?
A: -0.135

Q: Which “shrunken log2 fold change” value does the source give for RRIRERPPRLPRPRPRPCSEPRP here?
A: 0.0641

Q: RRIRTRPPRLPRPRPRPSAKPRP was tested. Which “shrunken log2 fold change” value did it give?
A: 0.227

Q: With RRIRQRPPRLPRPRPRPDRDPRP as the sequence, how does the “shrunken log2 fold change” value read?
A: -0.242

Q: For RRIRPRPPRLPRPRPRPMQDPRP, which “shrunken log2 fold change” value is on record?
A: 0.0218

Q: With RRIRIRPPRLPRPRPRPEHHPRP as the sequence, how does the “shrunken log2 fold change” value read?
A: -0.206

Q: Which “shrunken log2 fold change” value does the source give for RRIRERPPRLPRPRPRPRHHPRP here?
A: -0.0796

Q: For RRIRRRPPRLPRPRPRPSNWPRP, which “shrunken log2 fold change” value is on record?
A: -0.192

Q: How did the “shrunken log2 fold change” value turn out when RRIRERPPRLPRPRPRPILCPRP was run?
A: -0.0244

Q: RRIRWRPPRLPRPRPRPGMKPRP was tested. Which “shrunken log2 fold change” value did it give?
A: 0.0023

Q: How did the “shrunken log2 fold change” value turn out when RRIRYRPPRLPRPRPRPVFDPRP was run?
A: -1.18

Q: How did the “shrunken log2 fold change” value turn out when RRIRYRPPRLPRPRPRPYDHPRP was run?
A: -0.474

Q: How did the “shrunken log2 fold change” value turn out when RRIRKRPPRLPRPRPRPDCMPRP was run?
A: -0.0185

Q: With RRIRQRPPRLPRPRPRPPKFPRP as the sequence, how does the “shrunken log2 fold change” value read?
A: 0.117

Q: RRIRSRPPRLPRPRPRPSVYPRP was tested. Which “shrunken log2 fold change” value did it give?
A: -0.81

Q: With RRIRMRPPRLPRPRPRPPMHPRP as the sequence, how does the “shrunken log2 fold change” value read?
A: 0.704

Q: RRIRLRPPRLPRPRPRPFTNPRP was tested. Which “shrunken log2 fold change” value did it give?
A: 0.0104

Q: For RRIRYRPPRLPRPRPRPNYRPRP, which “shrunken log2 fold change” value is on record?
A: -0.306

Q: How did the “shrunken log2 fold change” value turn out when RRIRCRPPRLPRPRPRPHNMPRP was run?
A: -0.82

Q: How did the “shrunken log2 fold change” value turn out when RRIRARPPRLPRPRPRPDAEPRP was run?
A: 1.63

Q: RRIRTRPPRLPRPRPRPDIGPRP was tested. Which “shrunken log2 fold change” value did it give?
A: -0.187

Q: How did the “shrunken log2 fold change” value turn out when RRIRMRPPRLPRPRPRPGWKPRP was run?
A: 0.0184

Q: For RRIRDRPPRLPRPRPRPAAMPRP, which “shrunken log2 fold change” value is on record?
A: 1.32

Q: RRIRYRPPRLPRPRPRPLQYPRP was tested. Which “shrunken log2 fold change” value did it give?
A: -0.624
